Data reported in patent EP3284477A1, “COMPOSITION COMPRISING SELF-ASSEMBLING PEPTIDES FOR USE IN TREATMENT OF GINGIVITIS, PERIODONTITIS AND/OR PERI-IMPLANTITIS” (Credentis AG, priority 2016, dated 2018).

Tests used:
P. gingivalis = assay: Release of antibiotics from self-assembling peptide gels: impact on bacterial growth (turbidity OD600); assay type: cell-based; settings: antibiotic 150 mg/ml released from self-assembling peptide gels (15 mg/ml), anaerobic, OD600 normalized to gel without antibiotic, over 120 hours
Method: (§1) The following figures and examples are supposed to illustrate and further explain, but not to limit the invention. Any references cited herein are herewith fully incorporated. • Fig. 1: Bacterial density after release of antibiotics (150 mg/ml) from self-assembling peptide gels (15 mg/ml), and the impact thereof to the growth of P. gingivalis (A-C) and S. sanguinis (D-F). Circles: metronidazol, stars: tetracycline, triangle: ciprofloxacin, squares: doxycycline hyclate; control: gel without API A/D P11-4 gel. B/E P11-13/14 gel. C/F P11-28/29 gel • Fig. 2: Cross section of demineralized tooth after incubation with polymeric P11-4. […] 100µl peptide / well, c= 20 mg/ml, in PBS, quantified with Qubit R Protein Assay Ref: Q33211. […] 100 µl peptide / well, c= 20 mg/ml, in PBS, quantified with Qubit R Protein Assay Ref: Q33211. […] Since NO3- are monovalent ions, and ionic strength of the solution was below 130 mM, P11-8 self-assembling was slowed down. […] The cell/SAP-gel/ dentin was then incubated for 8 days and visually assessed resulting in migration of up to 5 mm. […]
(§2) Furthermore 100 uL/well of a defined anaerobic P. gingivalis or aerobic S. anguines bacterial culture ([…] e.g. 990 µl BHI medium, 10 µl 10^8 CFU/ml bacteria suspension) were added onto the gels. Impact on growth was assessed by measuring turbidity at OD600 nm. […]

S. sanguinis = assay: as above; assay type: cell-based; settings: antibiotic 150 mg/ml released from self-assembling peptide gels (15 mg/ml), aerobic, OD600 normalized to gel without antibiotic, over 120 hours
Method: as §1, §2

[1] = Stability of P11 peptide gels in absence of cells or bacteria (peptide release into supernatant, Qubit Protein Assay); assay type: physicochemical; design: unit not given here; settings: 7 days, 100µl peptide / well, c= 20 mg/ml, in PBS
Method: (§3) The following figures and examples are supposed to illustrate and further explain, but not to limit the invention. Any references cited herein are herewith fully incorporated. • Fig. 1: Bacterial density after release of antibiotics (150 mg/ml) from self-assembling peptide gels (15 mg/ml), and the impact thereof to the growth of P. gingivalis (A-C) and S. sanguinis (D-F). Circles: metronidazol, stars: tetracycline, triangle: ciprofloxacin, squares: doxycycline hyclate; control: gel without API A/D P11-4 gel. B/E P11-13/14 gel. C/F P11-28/29 gel • Fig. 2: Cross section of demineralized tooth after incubation with polymeric P11-4. […] 100µl peptide / well, c= 20 mg/ml, in PBS, quantified with Qubit R Protein Assay Ref: Q33211. […] 100 µl peptide / well, c= 20 mg/ml, in PBS, quantified with Qubit R Protein Assay Ref: Q33211. […] Since NO3- are monovalent ions, and ionic strength of the solution was below 130 mM, P11-8 self-assembling was slowed down. On the other hand self-assembling kinetic of P11-8 with DMEM and NaCl solution is very similar. […] Human Periodontal Ligament cells were placed in a cell pool (A) and the SAP gel (C) placed on the human dentin (B). The cell/SAP-gel/ dentin was then incubated for 8 days and visually assessed resulting in migration of up to 5 mm. Scale bar: 1 mm

bacteria = assay: Degradation of P11-4 peptide gel in presence of bacteria (Qubit Protein Assay); assay type: physicochemical; settings: 100 µl peptide / well, c= 20 mg/ml, in PBS
Method: as §3

[2] = Mechanical properties (storage modulus G') of gels in different ion and buffer systems; assay type: physicochemical; settings: compared with Tris-NaCl
Method: as §3

[3] = system: Human Periodontal Ligament cells; assay: Cell migration on a periodontal ligament model (cell pool / SAP gel / human dentin); assay type: cell-based; settings: 15 mg/ml gel on human dentin, 8 days of incubation, visually assessed
Method: as §3

Row | Compound | inhibition of bacterial growth (relative bacterial density) (P. gingivalis) | inhibition of bacterial growth (relative bacterial density) (S. sanguinis) | release of peptide into the supernatant [1] | stability (time the peptide is stable) (bacteria) | storage modulus G' ([2]; gel formed in DMEM (pH 7.4, ionic strength 130 mM)) | storage modulus G' ([2]; gel formed in artificial saliva (Tris 120 mM, Ca(NO3) 4 mM, KH2PO4 2.4 mM, pH 7.2), DMEM, Tris MgSO4) | migration [3]
1 | Cc1ncc([N+](=O)[O-])n1CCO [metronidazole] | low effectivity in most systems at this concentration | low effectivity in most systems at this concentration |  |  |  |  | 
2 | QQRFEWEFEQQ [P11-4, self-assembling peptide] |  |  | less than one | more than 3 days | lower storage modulus | storage moduli between G'(NaCl and MgSO^4) was reached | up to 5 mm
